The target in test [1] is MamB_(BW-1) cytosolic C-terminal domain (CTD), residues 190-270 (Desulfamplus magnetovallimortis strain BW-1) (UniProt G8IQT4). The experiment in a line: SEC; preparative size-exclusion chromatography after Ni-NTA; HiLoad 26/60 Superdex 75; buffer E (20 mM Tris-HCl pH 8, 150 mM NaCl, 5 mM beta-mercaptoethanol).
Test [2] deals with MamM_(BW-1) cytosolic C-terminal domain (CTD), residues 213-293 (Desulfamplus magnetovallimortis strain BW-1). The description is as above.

Take “MamB_(BW-1) cytosolic C-terminal domain (CTD), residues 190-270 (from UniProt G8IQT4 190-270) (domain or fragment)”: the stoichiometry N (usually the number of molecules, sites or subunits per partner or assembly) in test [1] is 2. Consider “MamM_(BW-1) cytosolic C-terminal domain (CTD), residues 213-293 (domain or fragment)”, for which the stoichiometry N in test [2] was found to be 2.
